Reference: the supplement of paper PMC10724198
± gives the standard deviation of the averaged measurements.

Legend:
Saccharomyces cerevisiae [1] = experiment: protein stability index of tFT-peptide fusion (C-terminal peptide) (PSI (0-1 scale)); higher = more stable (slower turnover)
Description: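 MPS profiling in S. cerevisiae of the tFT-X12 degron library: putative degron peptides plus stable controls, 12 aa, fused to the C-terminus of a sfGFP-mCherry timer. Cells are FACS-sorted into 8 mCherry/sfGFP bins and deep-sequenced. PSI runs from 0 (unstable) to 1 (stable). Backgrounds are wild type, das1Δ and doa10Δ at 30 °C, and wild type, das1Δ, cdc34-1 and cdc53-1 at 37 °C; 2-3 technical replicates each.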

Saccharomyces cerevisiae [2] = experiment: as above; conditions: genetic background: wild type; temperature: 30 C
[3] = genetic background: cdc34-1, temperature: 37 C
[4] = genetic background: cdc53-1, temperature: 37 C
[5] = genetic background: das1 deletion, temperature: 30 C
[6] = genetic background: das1 deletion, temperature: 37 C
[7] = genetic background: doa10 deletion, temperature: 30 C
[8] = genetic background: wild type, temperature: 30 C
[9] = genetic background: wild type, temperature: 37 C
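Also: PSI is a weighted mean of sequencing reads over stability bins, variants kept only with over 10 reads, mCherry proximal and sfGFP distal, peptide attached via GGGS linker.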

Sequence | protein stability index (Saccharomyces cerevisiae [1]; [3]) | protein stability index (Saccharomyces cerevisiae [1]; [4]) | protein stability index (Saccharomyces cerevisiae [1]; [5]) | protein stability index (Saccharomyces cerevisiae [1]; [6]) | protein stability index (Saccharomyces cerevisiae [1]; [7]) | protein stability index (Saccharomyces cerevisiae [1]; [8]) | protein stability index (Saccharomyces cerevisiae [1]; [9]) | protein stability index (Saccharomyces cerevisiae [2])
RRVLVVPCIWHM | 0.653 ± 0.031 | 0.73 ± 0.011 | 0.604 ± 0.015 | 0.673 ± 0.048 | 0.174 ± 0.026 | 0.223 ± 0.022 | 0.416 ± 0.022 | 0.327 ± 0.0065
RSGWWQWGRPGT | 0.698 ± 0.031 | 0.7525 ± 0.0031 | 0.661 ± 0.033 | 0.7712 ± 0.0041 | 0.692 ± 0.034 | 0.691 ± 0.03 | 0.734 ± 0.025 | 0.752 ± 0.049
RSIAFLLGQFLS | 0.6679 ± 0.0052 | 0.745 ± 0.016 | 0.68 ± 0.027 | 0.74305 ± 0.00053 | 0.372 ± 0.019 | 0.395 ± 0.047 | 0.637 ± 0.016 | 0.467 ± 0.013
RSKLGVLVILWF | 0.288 ± 0.02 | 0.391 ± 0.011 | 0.293 ± 0.031 | 0.466 ± 0.012 | 0.243 ± 0.016 | 0.273 ± 0.025 | 0.448 ± 0.0055 | 0.353 ± 0.037
RSYAYIIVATVA | 0.153 ± 0.021 | 0.197 ± 0.0038 | 0.182 ± 0.026 | 0.284 ± 0.014 | 0.14 ± 0.0081 | 0.178 ± 0.025 | 0.214 ± 0.024 | 0.274 ± 0.023
RTALSSPRPALL | 0.6896 ± 0.0052 | 0.7635 ± 0.0053 | 0.701 ± 0.017 | 0.75 ± 0.0094 | 0.7131 ± 0.0061 | 0.723 ± 0.011 | 0.733 ± 0.0077 | 0.7799 ± 0.006
RTFPYSALSFVS | 0.618 ± 0.032 | 0.712 ± 0.013 | 0.652 ± 0.046 | 0.718 ± 0.015 | 0.216 ± 0.022 | 0.235 ± 0.045 | 0.445 ± 0.048 | 0.457 ± 0.013
RVFRRFCCVISM | 0.312 ± 0.034 | 0.342 ± 0.018 | 0.342 ± 0.029 | 0.49 ± 0.045 | 0.437 ± 0.027 | 0.339 ± 0.022 | 0.439 ± 0.015 | 0.366 ± 0.025
RVFVGLVDFLFW | 0.437 ± 0.033 | 0.553 ± 0.073 | 0.402 ± 0.025 | 0.6062 ± 0.0026 | 0.37 ± 0.019 | 0.394 ± 0.033 | 0.57 ± 0.035 | 0.471 ± 0.072
RVVITYLVLSNR | 0.648 ± 0.06 | 0.686 ± 0.013 | 0.509 ± 0.018 | 0.646 ± 0.011 | 0.522 ± 0.039 | 0.505 ± 0.018 | 0.6445 ± 0.0056 | 0.547 ± 0.094
RWALPALWAYAA | 0.493 ± 0.029 | 0.715 ± 0.034 | 0.583 ± 0.025 | 0.7029 ± 0.007 | 0.0884 ± 0.011 | 0.105 ± 0.012 | 0.16 ± 0.05 | 0.146 ± 0.094
RWGLFIGIVIGF | 0.146 ± 0.0085 | 0.211 ± 0.003 | 0.219 ± 0.037 | 0.338 ± 0.0087 | 0.235 ± 0.014 | 0.217 ± 0.024 | 0.317 ± 0.025 | 0.337 ± 0.021
RYQDLSDWRRIS | 0.412 ± 0.02 | 0.6574 ± 0.0031 | 0.629 ± 0.0036 | 0.753 ± 0.028 | 0.073 ± 0.0096 | 0.0791 ± 0.017 | 0.0794 ± 0.017 | 0.159 ± 0.0075
RYTWHGICIVTR | 0.43107 ± 0.00014 | 0.456 ± 0.013 | 0.312 ± 0.027 | 0.4805 ± 0.0035 | 0.285 ± 0.0063 | 0.313 ± 0.019 | 0.476 ± 0.0052 | 0.4401 ± 0.0033
SCCLLICIFFIF | 0.317 ± 0.045 | 0.408 ± 0.065 | 0.306 ± 0.015 | 0.391 ± 0.064 | 0.227 ± 0.0076 | 0.231 ± 0.029 | 0.33 ± 0.0056 | 0.297 ± 0.0023
SCLSYRTRLLAF | 0.52 ± 0.045 | 0.617 ± 0.011 | 0.477 ± 0.019 | 0.587 ± 0.0083 | 0.406 ± 0.0086 | 0.41 ± 0.014 | 0.504 ± 0.011 | 0.49 ± 0.0059
SCRCIIFVCCFW | 0.256 ± 0.0043 | 0.404 ± 0.032 | 0.262 ± 0.025 | 0.465 ± 0.057 | 0.235 ± 0.0024 | 0.237 ± 0.034 | 0.388 ± 0.023 | 0.384 ± 0.011
SFFVCAGFWVLC | 0.419 ± 0.0091 | 0.511 ± 0.081 | 0.347 ± 0.025 | 0.539 ± 0.049 | 0.248 ± 0.011 | 0.289 ± 0.016 | 0.456 ± 0.0091 | 0.363 ± 0.024
SFLCGCVVCWLW | 0.464 ± 0.063 | 0.547 ± 0.039 | 0.397 ± 0.026 | 0.552 ± 0.011 | 0.4 ± 0.027 | 0.396 ± 0.014 | 0.505 ± 0.0073 | 0.449 ± 0.04
SFLVRFVYFFAL | 0.54 ± 0.043 | 0.619 ± 0.025 | 0.549 ± 0.021 | 0.6696 ± 0.0039 | 0.229 ± 0.02 | 0.232 ± 0.027 | 0.309 ± 0.017 | 0.314 ± 0.019

Sequence | protein stability index (Saccharomyces cerevisiae [1]; [3]) | protein stability index (Saccharomyces cerevisiae [1]; [4]) | protein stability index (Saccharomyces cerevisiae [1]; [5]) | protein stability index (Saccharomyces cerevisiae [1]; [6]) | protein stability index (Saccharomyces cerevisiae [1]; [7]) | protein stability index (Saccharomyces cerevisiae [1]; [8]) | protein stability index (Saccharomyces cerevisiae [1]; [9]) | protein stability index (Saccharomyces cerevisiae [2])
SFQLVFLCVLIW | 0.136 ± 0.0088 | 0.129 ± 0.008 | 0.155 ± 0.024 | 0.237 ± 0.0049 | 0.203 ± 0.011 | 0.154 ± 0.0091 | 0.184 ± 0.011 | 0.218 ± 0.029
SFTPPRVCLCFS | 0.465 ± 0.04 | 0.503 ± 0.008 | 0.319 ± 0.029 | 0.5205 ± 0.0047 | 0.2778 ± 0.002 | 0.3 ± 0.024 | 0.496 ± 0.02 | 0.3999 ± 0.0022
SFVCFFLNLFVY | 0.0549 ± 0.013 | 0.138 ± 0.013 | 0.172 ± 0.032 | 0.272 ± 0.017 | 0.123 ± 0.021 | 0.123 ± 0.019 | 0.18 ± 0.018 | 0.164 ± 0.0077
SGCWGRRLWFFN | 0.668 ± 0.04 | 0.791 ± 0.018 | 0.66 ± 0.037 | 0.7567 ± 0.0052 | 0.189 ± 0.018 | 0.235 ± 0.016 | 0.453 ± 0.011 | 0.325 ± 0.065
SIFWWWLVFILG | 0.469 ± 0.0093 | 0.4759 ± 0.0034 | 0.362 ± 0.02 | 0.502 ± 0.008 | 0.366 ± 0.018 | 0.368 ± 0.026 | 0.462 ± 0.011 | 0.418 ± 0.085
SIIRHLFHPSST | 0.67 ± 0.026 | 0.7184 ± 0.0046 | 0.643 ± 0.0091 | 0.72688 ± 9e-05 | 0.65 ± 0.018 | 0.659 ± 0.03 | 0.695 ± 0.018 | 0.709 ± 0.013
SIPFWPVLFFLL | 0.353 ± 0.021 | 0.475 ± 0.014 | 0.494 ± 0.018 | 0.6088 ± 0.0044 | 0.0877 ± 0.011 | 0.091 ± 0.011 | 0.0952 ± 0.0057 | 0.14 ± 0.033
SIRIIVVVRGAS | 0.528 ± 0.048 | 0.628 ± 0.056 | 0.433 ± 0.023 | 0.61 ± 0.071 | 0.393 ± 0.024 | 0.41 ± 0.017 | 0.543 ± 0.02 | 0.382 ± 0.12
SLCSRLVVVAWF | 0.531 ± 0.017 | 0.599 ± 0.026 | 0.432 ± 0.026 | 0.608 ± 0.014 | 0.374 ± 0.035 | 0.386 ± 0.0062 | 0.553 ± 0.026 | 0.494 ± 0.024
SLRKRILCRFEY | 0.6572 ± 0.0064 | 0.708 ± 0.011 | 0.655 ± 0.012 | 0.7348 ± 0.0056 | 0.368 ± 0.041 | 0.4388 ± 0.0014 | 0.599 ± 0.023 | 0.511 ± 0.023
SLSIFCLMLMLF | 0.564 ± 0.04 | 0.601 ± 0.029 | 0.467 ± 0.016 | 0.565 ± 0.025 | 0.425 ± 0.015 | 0.406 ± 0.021 | 0.512 ± 0.012 | 0.4537 ± 0.0037
SPPSFPPLLLLS | 0.668 ± 0.043 | 0.7368 ± 0.00078 | 0.608 ± 0.015 | 0.7386 ± 0.0036 | 0.326 ± 0.028 | 0.362 ± 0.022 | 0.541 ± 0.028 | 0.48 ± 0.022
SPSFLVIFTMLL | 0.528 ± 0.023 | 0.577 ± 0.01 | 0.433 ± 0.034 | 0.6018 ± 0.0041 | 0.438 ± 0.044 | 0.444 ± 0.013 | 0.596 ± 0.017 | 0.468 ± 0.015
SPSSLPRPLFLS | 0.592 ± 0.015 | 0.726 ± 0.017 | 0.616 ± 0.015 | 0.7356 ± 0.0018 | 0.138 ± 0.033 | 0.163 ± 0.02 | 0.289 ± 0.026 | 0.261 ± 0.053
SPVPITVAVGCR | 0.473 ± 0.0085 | 0.491 ± 0.012 | 0.352 ± 0.034 | 0.5444 ± 0.0028 | 0.329 ± 0.008 | 0.357 ± 0.021 | 0.499 ± 0.018 | 0.407 ± 0.029
SQSNQSIIRKNV | 0.7 ± 0.043 | 0.713 ± 0.0077 | 0.63 ± 0.013 | 0.737 ± 0.016 | 0.296 ± 0.034 | 0.36 ± 0.032 | 0.551 ± 0.069 | 0.453 ± 0.02
SSCLPAPPPLPL | 0.6491 ± 0.003 | 0.747 ± 0.025 | 0.682 ± 0.042 | 0.698 ± 0.0084 | 0.677 ± 0.0075 | 0.672 ± 0.021 | 0.701 ± 0.017 | 0.4965 ± 0.0048
SSFFFLFCFFPS | 0.575 ± 0.13 | 0.619 ± 0.027 | 0.48 ± 0.062 | 0.646 ± 0.055 | 0.444 ± 0.031 | 0.449 ± 0.019 | 0.604 ± 0.017 | 0.471 ± 0.047
SSFPGPPLPPDP | 0.704 ± 0.024 | 0.74 ± 0.013 | 0.652 ± 0.024 | 0.731 ± 0.022 | 0.682 ± 0.038 | 0.7 ± 0.019 | 0.7108 ± 0.0069 | 0.59 ± 0.17
